B1: Myc-IE1 1–382 5x mut (domain or fragment, human cytomegalovirus, UniProt P13202 1-382, looked up)
chain: MESSAKRKMDPDNPDEGPSSKVPRPETPVTKATTFLQTMLRKEVNSQLSLGDPLFPELAEESLKTFEQVTEDCNENPEKDVLAELVKQIKVRVDMVRHRIKEHMLKKYTQTEEKFTGAFNMMGGCLQNALDILDKVHEPFEEMKCIGLTMQSMYENYIVPEDKREMWMACIKELHDVSKGAANKLGGALQAKARAKKDELRRKMMYMCYRNIEFFTKNSAFPATTNGCSQAMAALQALPQCSPDEIMAYAQKIFKILDEERDKVLTHIDHIFMDILTTCVETMCAEYKVTSDACMATMYGGISLLSEFCAVLCCYVLEETSVMLAKRPLITKPEVISVMKRRIEEICMKVFAQYILGADPLRVCSPSVDDLRAIAEESDEEE

Columns and labels:
[1] = biological target: FLAG-FEN1 (full length) (UniProt P39748)
[2] = biological target: FLAG-FEN1 (full length) (UniProt P39748 1-380); assay: cell-based or functional assay
Chain of FLAG-FEN1 (full length) (UniProt P39748 1-380) (P39748 whole entry): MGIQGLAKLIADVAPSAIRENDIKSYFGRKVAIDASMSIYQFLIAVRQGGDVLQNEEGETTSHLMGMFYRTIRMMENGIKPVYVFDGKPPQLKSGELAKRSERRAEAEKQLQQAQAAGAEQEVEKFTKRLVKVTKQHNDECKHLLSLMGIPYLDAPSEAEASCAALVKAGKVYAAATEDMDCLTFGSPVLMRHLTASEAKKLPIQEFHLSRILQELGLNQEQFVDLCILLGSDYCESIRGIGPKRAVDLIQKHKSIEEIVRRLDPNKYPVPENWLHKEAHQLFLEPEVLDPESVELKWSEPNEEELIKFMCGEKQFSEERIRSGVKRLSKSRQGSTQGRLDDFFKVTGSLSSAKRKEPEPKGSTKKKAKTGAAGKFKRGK

Chain of FLAG-FEN1 (full length) (UniProt P39748) (P39748 whole entry): as above

| Molecule | normalized pFEN1 (Ser187)/FEN1 ratio by densitometry of Western blots, 293T cells transfected with FLAG-FEN1 and untagged IE1 wt (FEN1 alone set to 1) [1] | normalized pFEN1 (Ser187)/FEN1 ratio by densitometry of Western blots, 293T cells transfected with FLAG-FEN1 and full-length IE1 5x mut (FEN1 alone set to 1) [2] |
| --- | --- | --- |
| HCMV immediate early protein 1 (IE1) expressed in AD169-infected cells (natural protein) | 2.4 |  |
| B1 |  | 1.5 ratio |
